Experimental data: patent publication US20100047163A1 (LAWRENCE BERKELEY NATIONAL LABORATORY, published 2010)
“And” between values parts separate entries of the source, which are not always exact repeats. Identical values can stand only once.

B1: LDL receptor (LDLR) on human glioblastoma multiforme cells (receptor)
chain: not shown
notes: whole, on cells; also called cell surface LDLR

Experiments:
[1] = molecular target: B1; experiment: cell-based or functional assay
[2] = molecular target: T1, native plasma LDL (low density lipoprotein; LDLR ligand apoB100 on its surface) (human, UniProt P04114 28-4563); experiment: ^125I-LDL saturation binding to SF-763 cells
T1 construct: Lipoprotein particle isolated from plasma; also called native LDL
T1 sequence (P04114 28-4563 limits assumed): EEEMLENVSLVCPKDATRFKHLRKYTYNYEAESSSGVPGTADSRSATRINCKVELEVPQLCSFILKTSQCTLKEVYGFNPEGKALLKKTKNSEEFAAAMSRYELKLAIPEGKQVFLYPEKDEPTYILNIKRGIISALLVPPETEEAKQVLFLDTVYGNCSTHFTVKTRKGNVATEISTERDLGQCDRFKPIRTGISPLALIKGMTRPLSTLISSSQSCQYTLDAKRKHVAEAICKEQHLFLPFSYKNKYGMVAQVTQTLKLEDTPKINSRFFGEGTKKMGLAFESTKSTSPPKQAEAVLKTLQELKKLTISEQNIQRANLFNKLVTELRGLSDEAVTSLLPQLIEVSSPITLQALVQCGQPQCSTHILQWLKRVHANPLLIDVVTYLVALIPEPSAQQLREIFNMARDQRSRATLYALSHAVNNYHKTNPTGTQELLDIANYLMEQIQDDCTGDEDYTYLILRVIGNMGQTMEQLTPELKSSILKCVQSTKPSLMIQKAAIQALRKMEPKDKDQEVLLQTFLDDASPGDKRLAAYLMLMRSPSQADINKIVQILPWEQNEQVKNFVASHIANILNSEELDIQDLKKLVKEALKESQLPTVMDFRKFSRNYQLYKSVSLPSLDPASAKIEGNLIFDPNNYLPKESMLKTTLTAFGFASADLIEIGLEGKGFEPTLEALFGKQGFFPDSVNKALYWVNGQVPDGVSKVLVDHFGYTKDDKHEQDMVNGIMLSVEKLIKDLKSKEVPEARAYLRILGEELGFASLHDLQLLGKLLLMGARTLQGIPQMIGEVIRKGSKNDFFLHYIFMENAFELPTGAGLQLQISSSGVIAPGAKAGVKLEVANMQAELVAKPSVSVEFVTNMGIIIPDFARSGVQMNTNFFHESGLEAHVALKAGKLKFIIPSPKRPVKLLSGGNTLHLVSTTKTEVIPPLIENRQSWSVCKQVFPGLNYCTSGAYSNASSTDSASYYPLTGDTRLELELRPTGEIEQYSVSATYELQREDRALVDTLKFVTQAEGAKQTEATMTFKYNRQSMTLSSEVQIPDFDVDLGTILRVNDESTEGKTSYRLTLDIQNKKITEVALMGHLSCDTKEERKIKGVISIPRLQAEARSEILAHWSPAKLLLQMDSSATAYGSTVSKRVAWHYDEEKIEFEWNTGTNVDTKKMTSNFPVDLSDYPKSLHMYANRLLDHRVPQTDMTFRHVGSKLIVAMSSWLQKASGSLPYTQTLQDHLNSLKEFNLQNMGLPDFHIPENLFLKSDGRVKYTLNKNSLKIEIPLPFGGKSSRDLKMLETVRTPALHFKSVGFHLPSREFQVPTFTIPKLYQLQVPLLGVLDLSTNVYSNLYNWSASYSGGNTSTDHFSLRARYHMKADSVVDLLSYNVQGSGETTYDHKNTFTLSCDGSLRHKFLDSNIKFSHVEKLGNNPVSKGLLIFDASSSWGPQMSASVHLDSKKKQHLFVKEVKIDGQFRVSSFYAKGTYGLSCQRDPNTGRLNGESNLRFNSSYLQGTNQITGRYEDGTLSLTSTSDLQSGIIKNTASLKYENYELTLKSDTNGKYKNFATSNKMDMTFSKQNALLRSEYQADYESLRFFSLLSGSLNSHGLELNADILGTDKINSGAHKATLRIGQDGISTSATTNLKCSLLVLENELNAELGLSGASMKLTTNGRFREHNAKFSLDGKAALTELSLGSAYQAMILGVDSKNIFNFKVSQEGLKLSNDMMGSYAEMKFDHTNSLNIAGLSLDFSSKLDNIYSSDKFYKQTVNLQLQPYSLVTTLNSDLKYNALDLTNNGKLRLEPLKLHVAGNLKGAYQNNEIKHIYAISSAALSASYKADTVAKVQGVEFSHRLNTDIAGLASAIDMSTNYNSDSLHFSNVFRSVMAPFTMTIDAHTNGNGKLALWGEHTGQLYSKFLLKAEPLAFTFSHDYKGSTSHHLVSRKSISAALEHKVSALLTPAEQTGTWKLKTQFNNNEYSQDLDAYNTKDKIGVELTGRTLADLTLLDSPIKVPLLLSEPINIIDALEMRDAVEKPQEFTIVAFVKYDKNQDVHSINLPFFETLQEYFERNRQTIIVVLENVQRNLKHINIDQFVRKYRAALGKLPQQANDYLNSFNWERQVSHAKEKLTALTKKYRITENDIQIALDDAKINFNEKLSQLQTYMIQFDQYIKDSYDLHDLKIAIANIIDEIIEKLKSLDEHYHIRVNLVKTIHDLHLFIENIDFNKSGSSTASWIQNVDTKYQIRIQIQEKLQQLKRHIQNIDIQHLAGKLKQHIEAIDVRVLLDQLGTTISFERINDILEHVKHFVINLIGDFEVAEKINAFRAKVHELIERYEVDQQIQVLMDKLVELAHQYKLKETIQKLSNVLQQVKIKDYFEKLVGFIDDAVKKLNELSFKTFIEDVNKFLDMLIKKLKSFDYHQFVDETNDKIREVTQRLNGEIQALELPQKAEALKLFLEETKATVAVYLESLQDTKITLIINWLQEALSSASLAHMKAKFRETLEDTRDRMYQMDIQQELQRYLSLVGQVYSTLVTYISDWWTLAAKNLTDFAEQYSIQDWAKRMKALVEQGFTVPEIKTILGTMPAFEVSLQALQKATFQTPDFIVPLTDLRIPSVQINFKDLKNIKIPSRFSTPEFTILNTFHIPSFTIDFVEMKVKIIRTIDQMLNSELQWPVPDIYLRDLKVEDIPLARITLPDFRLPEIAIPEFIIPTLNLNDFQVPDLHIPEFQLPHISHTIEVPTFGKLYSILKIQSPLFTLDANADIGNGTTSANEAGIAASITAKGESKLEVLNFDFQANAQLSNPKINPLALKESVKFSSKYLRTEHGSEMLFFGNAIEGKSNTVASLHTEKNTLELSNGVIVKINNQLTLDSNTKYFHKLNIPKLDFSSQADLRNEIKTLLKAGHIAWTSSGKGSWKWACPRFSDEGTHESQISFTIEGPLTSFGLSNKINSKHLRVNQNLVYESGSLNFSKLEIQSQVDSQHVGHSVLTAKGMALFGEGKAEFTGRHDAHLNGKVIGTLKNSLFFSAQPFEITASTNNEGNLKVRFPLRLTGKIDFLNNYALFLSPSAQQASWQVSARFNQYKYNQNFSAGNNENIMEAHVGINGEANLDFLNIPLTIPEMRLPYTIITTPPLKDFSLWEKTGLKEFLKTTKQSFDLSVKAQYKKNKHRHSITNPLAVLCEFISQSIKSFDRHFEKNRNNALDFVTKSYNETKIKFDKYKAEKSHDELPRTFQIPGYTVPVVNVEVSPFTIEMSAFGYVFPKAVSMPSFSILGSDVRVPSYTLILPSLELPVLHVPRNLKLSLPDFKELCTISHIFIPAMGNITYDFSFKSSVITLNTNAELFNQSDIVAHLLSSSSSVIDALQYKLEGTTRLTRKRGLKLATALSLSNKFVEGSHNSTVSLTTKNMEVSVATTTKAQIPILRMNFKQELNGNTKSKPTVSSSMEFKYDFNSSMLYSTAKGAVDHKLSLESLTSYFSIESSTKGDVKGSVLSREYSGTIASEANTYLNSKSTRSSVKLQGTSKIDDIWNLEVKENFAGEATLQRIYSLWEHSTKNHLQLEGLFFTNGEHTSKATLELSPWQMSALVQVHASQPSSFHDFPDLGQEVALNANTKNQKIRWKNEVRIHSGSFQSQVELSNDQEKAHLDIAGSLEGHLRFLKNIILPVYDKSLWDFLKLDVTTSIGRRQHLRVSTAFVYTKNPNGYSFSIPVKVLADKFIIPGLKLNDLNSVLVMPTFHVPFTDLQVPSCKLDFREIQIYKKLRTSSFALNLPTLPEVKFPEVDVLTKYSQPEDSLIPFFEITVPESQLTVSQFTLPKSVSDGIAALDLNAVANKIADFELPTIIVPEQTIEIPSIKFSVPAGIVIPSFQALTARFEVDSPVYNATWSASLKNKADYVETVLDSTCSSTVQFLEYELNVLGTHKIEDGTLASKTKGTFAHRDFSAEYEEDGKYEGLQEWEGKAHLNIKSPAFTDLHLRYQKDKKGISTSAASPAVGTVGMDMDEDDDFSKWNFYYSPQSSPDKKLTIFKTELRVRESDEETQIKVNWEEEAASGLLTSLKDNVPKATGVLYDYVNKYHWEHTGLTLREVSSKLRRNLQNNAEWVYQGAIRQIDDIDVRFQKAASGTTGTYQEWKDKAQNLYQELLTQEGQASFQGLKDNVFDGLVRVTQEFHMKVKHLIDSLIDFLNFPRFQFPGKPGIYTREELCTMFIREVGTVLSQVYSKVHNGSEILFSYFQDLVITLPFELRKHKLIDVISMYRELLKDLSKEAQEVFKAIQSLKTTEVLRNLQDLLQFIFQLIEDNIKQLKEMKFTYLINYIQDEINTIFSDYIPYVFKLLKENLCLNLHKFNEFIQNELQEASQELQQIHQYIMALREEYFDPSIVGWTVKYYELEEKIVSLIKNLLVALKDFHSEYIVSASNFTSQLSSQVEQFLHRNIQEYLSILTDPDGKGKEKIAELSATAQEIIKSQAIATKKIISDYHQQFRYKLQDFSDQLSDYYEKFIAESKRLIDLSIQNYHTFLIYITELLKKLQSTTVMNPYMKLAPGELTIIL

[3] = molecular target: T1, native plasma LDL (low density …); experiment: ^125I-LDL saturation binding to SF-539 cells
[4] = molecular target: T1, native plasma LDL (low density …); experiment: ^125I-LDL saturation binding to U-251 MG cells (average of 2 experiments)
[5] = molecular target: T1, native plasma LDL (low density …); experiment: ^125I-LDL saturation binding to SF-767 cells
[6] = molecular target: T1, native plasma LDL (low density …); experiment: ^125I-LDL saturation binding to A-172 cells
[7] = molecular target: T1, native plasma LDL (low density …); experiment: ^125I-LDL saturation binding to U-343 MG cells

| Binder | IC50 of SF-763 cell killing, 6 hrs incubation with sLDL-PO, 72 hr total [1] [µM] | IC50 of SF-767 cell killing, 1 hr incubation with sLDL-PO, 72 hr total [1] [µM] | IC50 of SF-767 cell killing, 3 hr incubation with sLDL-PO, 72 hr total [1] [µM] | IC50 of SF-767 cell killing, 6 hr incubation with sLDL-PO, 72 hr total [1] [µM] | IC50 of SF-767 cell killing, 6 hrs incubation with sLDL-PO, 72 hr total [1] [µM] | IC50 of SF-767 cell killing, 12 hr incubation with sLDL-PO, 72 hr total [1] [µM] | IC50 of U-251 cell killing, 6 hrs incubation with sLDL-PO, 72 hr total [1] [µM] | Kd [2] | Kd [3] | Kd [4] | Kd [5] | Kd [6] | Kd [7] |
| --- | --- | --- | --- | --- | --- | --- | --- | --- | --- | --- | --- | --- | --- |
| Ac-DWLKAFYDKVAEKLKEAFRLTRKRGLKLA-NH2 (also: sLDL particle with paclitaxel oleate in lipid core, not covalently bound) [synthetic LDL containing paclitaxel oleate (sLDL-PO)] | 2 | 20 | 15 | 10 | 7 | 10 | 7 |  |  |  |  |  |  |
| B1 |  |  |  |  |  |  |  | 60 µg/mL and 120 nM | 50 µg/mL and 100 nM | 38 µg/mL and 76 nM | 3.5 µg/mL and 6.98 nM | 62 µg/mL and 124 nM | 40 µg/mL and 80 nM |
